Laboratory results reported in patent US20220185853A1, “AMANTADINE BINDING PROTEIN” (UNIVERSITY OF WASHINGTON, priority 2019, published 2022).
Entries after “also recorded” stand apart in the source; their conditions may differ.

What was measured:
ABP = assay: Circular dichroism temperature melt of ABP in the presence of amantadine; format: binding
Description: (§1) A synthetic gene encoding ABP was obtained and the protein expressed in E. coli.The design was expressed at high levels in the soluble fraction and was found by SEC-MALS to be a trimer in the presence and absence of amantadine (FIG. 2a). Interactions with amantadine were probed using thermofluor dye binding assay (differential scanning fluorimetry). […] As the protein was heated to 95° C., the fluorescence signal decreased, corresponding to protein aggregation at higher temperatures. […] In contrast, 2L6HC3_13, which has the same backbone parameters but lacks the amantadine binding site, is thermally stable by thermofluor assay, only starting to denature at ˜80° C. (FIG. 2b).
(§2) CD wavelength scans (260 to 195 nm) and temperature melts (25 to 95° C.) were measured using a JASCO™ J-1500 or an AVIV™ model 420 CD spectrometer. Temperature melts monitored […] at 222 nm and were carried out at a heating rate of 4° C/min. Protein samples were prepared at 0.25 mg/mL in phosphate buffered saline (PBS) pH 7.4 in a 0.1 cm cuvette.

ABP_L6Q = assay: Thermofluor assay, amantadine on ABP_L6Q; format: binding; conditions: 1 mM amantadine, 5 μM protein, SYPRO orange, 25° C.
Description: (§3) As the protein was heated to 95° C., the fluorescence signal decreased, corresponding to protein aggregation at higher temperatures.
(§4) Thermofluor assays were performed in SAXS buffer using a CFX96 Touch™ Real-Time PCR machine (Bio-Rad). Thermal stability assays were performed using 45 μL of 5 μM protein (with or without 1 mM amantadine) and 5 μL of freshly prepared 200X SYPRO™ orange (Thermo-Fisher) solution in SAXS buffer. The temperature was ramped from 25 ° C. to 95 ° C. in 0.5 ° C. increments with intervals of 5 s. Fluorescence was read in the FRET scanning mode. The average of three replicates of buffer+SYPRO orange solution (no protein control) was subtracted from the average of three replicates for each sample.

[1] = test system: ABP (amantadine-binding protein); assay: Thermofluor dye binding assay (differential scanning fluorimetry), amantadine on ABP; conditions: 1 mM amantadine, 5 μM protein, SYPRO orange, 25° C.
Description: as §1, §4

2L6HC3_13 = assay: Thermofluor assay, amantadine on 2L6HC3_13 (scaffold lacking the amantadine binding site); conditions: 1 mM amantadine
Description: as §1, §4

[2] = SEC-MALS oligomeric state; format: physicochemical; conditions: in the presence and absence of amantadine
Description: as §1

[3] = Circular dichroism temperature melt of ABP; format: physicochemical; conditions: CD at 25, 75, 95° C., without amantadine
Description: as §1, §2

[4] = Thermofluor melting curve of the proteins without ligand; format: physicochemical; conditions: for initial fluorescence signal of the apo protein (thermofluor melting curve): 25° C., without amantadine
Description: as §1, §3, §4

[5] = target: the molecule itself; assay: SEC-MALS; self-association of ABP subunits into a homo-trimer

Molecule: NC12CC3CC(CC(C3)C1)C2 [amantadine]
- loss in CD signal of ABP on heating to 95° C. in the presence of amantadine (ABP; 1 mM amantadine): not significantly altered
- thermal stability of ABP by CD spectrum in the presence of amantadine (ABP; 5 mM amantadine, 25, 75, 95° C.): not significantly affected
- initial fluorescence signal of ABP_L6Q in the presence of amantadine, compared with apo-ABP_L6Q (ABP_L6Q): lowered; also recorded: much lower
- initial fluorescence signal of ABP in the presence of amantadine, compared with apo-ABP [1]: lowered; also recorded: much lower
- effect of amantadine on the melting curve of 2L6HC3_13 (2L6HC3_13): no effect

B1: ABP: de novo designed homo-trimeric amantadine-binding protein, SEQ ID NO:1 (protein)
chain: DAQDKLKYLVKQLERALRELKKSLDELERSLEELEKNPSEDALVENNRLNVENNKIIVEVLRIILELAKASAKLA
modifications: homotrimer
- oligomeric state by SEC-MALS [2]: trimer
- thermal stability of the all α-helical structure by CD spectrum [3]: fairly stable up to 75 °C
- initial fluorescence signal of the apo protein (thermofluor melting curve) [4]: high

B2: ABP (amantadine-binding protein) (designed binder)
chain: GSHMGDAQDKLKYLVKQLERALRELKKSLDELERSLEELEKNPSEDALVENNRLNVENNKIIVEVLRIILELAKASAKLA
notes: The measurement row with m1 as both partners means self-association of ABP subunits
- binding result [5]: binds

B3: 2L6HC3_13: previously characterized design; same backbone parameters as ABP but lacks the amantadine binding site (protein)
chain: GTKYELRRALEELEKALRELKKSLDELERSLEELEKNPSEDALVENNRLNVENNKIIVEVLRIIAEVLKINAKSD
- initial fluorescence signal of the apo protein (thermofluor melting curve) [4]: very low
- temperature at which the protein starts to denature (thermofluor) ([4]; thermofluor assay, 25 to 95° C.): ~80 °C
